# Assay results as given in article PMC6332680.
# How the values were obtained:
# [1] = biological target: E. coli ribose-phosphate pyrophosphokinase (EcKPRS) (E. coli (strain K12)); experiment: crystal structure; 2.22 Å, space group C222_(1), three molecules in the asymmetric unit; hexamer from 3 molecules of the asymmetric unit and 3 symmetry related molecules; crystallised with 0.2 M magnesium chloride, 0.1 M HEPES pH 7.5, 30% PEG 400, 1 mM ADP, 291 K
# [2] = biological target: E. coli ribose-phosphate pyrophosphokinase (EcKPRS) (E. coli (strain K12)); experiment: SEC; size exclusion chromatography, data not shown
substance,measurement,setting,value
E. coli ribose-phosphate pyrophosphokinase (EcKPRS) (enzyme),stoichiometry N,[1],6
same,stoichiometry N,[2],6
